# Peptide text beside a SMILES is read from it. * marks the point of attachment. Lauroyl = CCCCCCCCCCCC(=O)*
# Tests used:
# [1] = Self-assembly and TEM imaging (filament diameter); type: physicochemical; details: self-assembled in PBS pH 7.4; mean±SD (n=30)
# Protocol: Self-Assembly, Co-Assembly, and TEM Imaging. For self-assembly, filler or ligand molecules were dissolved in PBS (20 mM sodium phosphate, 150 mM sodium chloride, pH 7.4) to reach a final concentration of 2.5 mM or 400 μM, respectively, and aged for 24 hours at room temperature. To construct co-assembled IFs, filler and ligand molecules were pretreated with hexafluoroisopropanol (HFIP) to eliminate any pre-existing nanostructures that could be possibly formed during the synthesis and purification process. After HFIP evaporation, filler and ligand molecules were dissolved in PBS (20 mM sodium phosphate, 150 mM sodium chloride, pH 7.4) to reach desired concentrations and aged for 24 hours at room temperature. 10 μl stock of each sample solution was then spotted on carbon film coated copper grids with 400 square mesh (Electron Microscopy Sciences, Hatfield, PA, USA) and the excess was removed with filter paper to leave a thin film of sample on the grid. After letting the sample dry for 5 minutes, 10 μl 2% uranyl acetate was added to the sample grid, and the excess was removed after 30 seconds. All samples were dried for at least three hours before imaging. Bright-field TEM imaging was performed on a FEI Tecnai 12 TWIN Transmission Electron Microscope and all TEM images were required by a SIS Megaview III wide-angle CCD camera.
# [2] = CMC measurement with Nile Red; type: physicochemical; details: ligand molecules in PBS
# Protocol: CMC measurement. The CMCs of the ligand molecules in PBS were determined using Nile Red, a hydrophobic dye that undergoes changes in both fluorescence intensity and emission wavelength (a blue-shift) upon partition into the hydrophobic domains of supramolecular assemblies. Nile Red was initially dissolved in acetone at 20 μM and 10 μl aliquots were loaded into several centrifuge tubes. After the acetone evaporated under room temperature. 500 μl fresh ligand solutions in PBS at various concentrations were added into the centrifuge tubes containing dry Nile Red and aged overnight for assembly. Fluorescent spectra of Nile Red were then monitored by a Fluorolog fluorometer (Jobin Yvon, Edison, NJ, USA) with fixed excitation wavelength at 560 nm; emission spectra were monitored at 580-720 nm. The ratio of the emission intensity at 635 nm (emission maximum of Nile red in a hydrophobic environment) to that at 660 nm (emission maximum of Nile red in an aqueous environment) was then plotted against the tested concentrations to obtain a transition curve, and the CMC value was determined by the intersection of the two fitting lines.
# pure mAb1 [3] = molecular target: T1, pure mAb1 (Homo sapiens, UniProt P01857); experiment: mAb precipitation experiment with co-assembled IFs; details: for mAb precipitation yield at optimal O16 concentration: 2.5 mM filler
# T1 construct: host or cells: CHO is stated only for the clarified harvest
# T1 sequence (P01857 1-330 isoform P01857-1): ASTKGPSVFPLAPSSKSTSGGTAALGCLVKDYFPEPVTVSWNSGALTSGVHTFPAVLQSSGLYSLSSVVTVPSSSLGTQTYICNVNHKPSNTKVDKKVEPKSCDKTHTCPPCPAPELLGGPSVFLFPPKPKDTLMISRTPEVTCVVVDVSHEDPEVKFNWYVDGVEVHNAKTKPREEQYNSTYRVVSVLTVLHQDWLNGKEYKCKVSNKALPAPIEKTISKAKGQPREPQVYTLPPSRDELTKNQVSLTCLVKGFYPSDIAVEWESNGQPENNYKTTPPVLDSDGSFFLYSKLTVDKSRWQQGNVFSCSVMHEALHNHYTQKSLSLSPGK
# Protocol: mAb Precipitation Experiment. IF stock solutions at desired filler and ligand concentrations were prepared one day before the precipitation experiment. In experimental groups, pure mAb1 from a concentrated solution (448 μM, 64.5 g/L) was then added into 100 μL IF solutions to reach a desired final concentration and incubated for 30 minutes at room temperature. The solution was then centrifuged at 15000 rpm for 15 minutes. For the 1M salt group, ammonium sulfate was added to the mAb-IF mixtures to reach a final concentration of 1M and incubated for another 30 minutes before centrifugation. The supernatant was taken out and analyzed by ProA-HPLC (POROS™ A 20 μm Column, Stainless Steel, 2.1×30 mm, 0.1 mL) to determine the protein concentrations. The precipitated amount of each species was calculated by subtracting the amount in the supernatant from the amount added. The precipitation yield was calculated by dividing […].
# [4] = Solubility limit of filler molecule in PBS; type: physicochemical; details: in PBS (pH 7.4)
# mAb1 = molecular target: T2, mAb1 (Homo sapiens, UniProt P01857); experiment: Turbidity of mAb1-IF mixture (absorbance at 350 nm); details: 40 μM mAb1, 2.5 mM filler, 250 μM O16, absorbance at 350 nm
# T2 construct: host or cells: CHO is stated only for the clarified harvest
# T2 sequence (P01857 1-330 isoform P01857-1): as above
# [5] = molecular target: T3, mAb1 in clarified CHO cell culture harvest (Homo sapiens, UniProt P01857); experiment: Purification of mAb1 from clarified cell culture harvest; details: sequential precipitation, no salt
# T3 construct: host or cells: Chinese hamster ovary (CHO) cells; harvest clarified by depth filtration
# T3 sequence (P01857 1-330 isoform P01857-1): as above
# Protocol: Purification of mAb1 from Clarified Cell Culture Harvest. mAb1 at clarified bulk state were incubated with optimized IFs (100 μL) at a concentration of 40 μM or 80 μM for 30 minutes. Same procedures were performed to precipitate mAb1 and obtain the centrifuged pellets. The pellets were then resuspended in […] (400 μL, 40 mM sodium acetate. pH 3.7) and transferred to a dialysis tube (Pur-A-Lyzer Maxi, 50 kDa cut-off molecular weight. Sigma-Aldrich. St. Louis, MO. USA). The resuspended solution was then dialyzed against 40 mM sodium acetate (1 L) at pH 3.7 for 24 hours with dialysis buffer replaced three times. The protein, filler, and ligand concentrations were determined by ProA-HPLC and RP-UPLC.
# pure mAb1 [6] = molecular target: T1, pure mAb1; experiment: Sequential precipitation of high mAb titers using lyophilized IFs; details: lyophilized IFs (2.5 mM filler, 400 μM O16); for mAb precipitation yield after six precipitation steps: no salt
# Protocol: Sequential Precipitation of High mAb Titers Using Lyophilized IFs. Six lyophilized IF stock powders (IF4-IF9) were prepared such that upon dissolution in 100 μL, the concentrations of the filler and O16 would be 2.5 mM and 400 μM, respectively. Lyophilized IF powders were prepared one day before the precipitation experiment. The IFs were allowed to co-assemble in water for 24 hours prior to lyophilization. Pure mAb1 from concentrated stock solutions of either (146 μM, 21 g/L) or (215 μM, 31 g/L) was added to the lyophilized IF4. After a 1-hour incubation, the samples were centrifuged at 15000 rpm for 15 minutes. Following centrifugation, the volume of supernatant was measured and fresh PBS was added until a final supernatant volume of 100 μL was reached. The 100 μL supernatant following the first precipitation step was then added to the next lyophilized IF stock powder (IF5) and allowed to incubate for another hour. This process of incubation, centrifugation, and supernatant transfer was repeated until all six lyophilized IFs (IF4-IF9) had been used for mAb precipitation. The supernatants after the first, third, and sixth precipitation steps were analyzed using ProA-HPLC to measure the cumulative amount of mAbs remaining throughout the precipitation process.
# pure mAb1 [7] = molecular target: T1, pure mAb1; experiment: mAb precipitation experiment with co-assembled IFs; details: 40 μM mAb1, 2.5 mM filler
# pure mAb1 [8] = molecular target: T1, pure mAb1; experiment: Sequential precipitation and mAb elution using IF solutions
# Protocol: Sequential Precipitation and mAb Elution Using IF Solutions. Three IF stock solutions. IF1 (2.5 mM filler, 250 μM O16). IF2 (2.5 mM filler, 750 μM O16), and IF3 (2.5 mM filler. 200 μM O16), were prepared one day before the precipitation experiment. Pure mAb1 from a concentrated solution (448 μM, 64.5 g/L) was added into 100 uL IF1 and 100 uL IF2 to reach a desired final concentration of 40 μM and 80 μM, respectively. After a 4-hour incubation, the samples were then centrifuged at 15000 rpm for 15 minutes and the supernatant was transferred to 100 uL IF3 for another 4-hour incubation and subsequent centrifugation. 200 μL PBS and 400 μL elution buffer (40 mM sodium acetate. pH 3.7) were then used to wash and resuspend the precipitates from the two precipitation steps. The supernatant from each precipitation step, wash step, and elution step were analyzed by ProA-HPLC (POROS™ A 20 μm Column, Stainless Steel, 2.1×30 mm, 0.1 mL) to determine mAb concentration.
molecule,measurement,setting,value
"O36: ligand molecule C12-VVKK[Linker]Z33, linker OEG36",diameter of self-assembled filamentous structures (TEM),[1],18.5±1.8 nm
same,CMC,[2],9.1 µM
same,yield discrepancy between 1M salt and no salt groups,"pure mAb1 [3]; 20 μM mAb1, 2.5 mM filler, 100 μM ligand",less than 10%
same,"mAb precipitation yield, ranking among ligands","pure mAb1 [3]; all conditions (20 and 40 μM mAb1, 1 M salt or no salt)",best mAb precipitation yields in all conditions
"O12: ligand molecule C12-VVKK[Linker]Z33, linker OEG12",diameter of self-assembled filamentous structures (TEM),[1],13.6±1.2 nm
same,CMC,[2],8.5 µM
CCCCCCCCCCCC(=O)N[C@H](C(=O)N[C@H](C(=O)N[C@@H](CCC(=O)O)C(=O)N[C@@H](CCC(=O)O)C(=O)O)C(C)C)C(C)C [C12-VVEE] (Lauroyl-VVEE-OH; N-terminus and C-terminus assumed),solubility,[4],2500 µM
"O16: ligand molecule C12-VVKK[Linker]Z33, linker OEG16",time to turbidity plateau,mAb1,≤ 30 min
same,mAb1 precipitation yield from clarified cell culture harvest,[5]; 40 μM mAb1 CB,more than 86%
same,mAb1 precipitation yield from clarified cell culture harvest,[5]; 80 μM mAb1 CB,> 90%
same,mAb precipitation yield after six precipitation steps,pure mAb1 [6]; 21 mg/mL pure mAb,96%
same,mAb precipitation yield after six precipitation steps,pure mAb1 [6]; 31 mg/ml pure mAb,98%
same,mAb precipitation yield after first precipitation step,pure mAb1 [6]; 21 or 31 mg/mL mAb,around 20%
same,mAb precipitation yield after three precipitation steps,pure mAb1 [6]; 21 or 31 mg/mL mAb,~80%
same,mAb precipitation yield,"pure mAb1 [7]; 250 μM O16, binding time 2 hours",88%
same,mAb precipitation yield,"pure mAb1 [7]; 250 μM O16, binding time 24 hours",92%
same,diameter of self-assembled filamentous structures (TEM),[1],14.9±1.3 nm
same,CMC,[2],10.5 µM
same,mAb1 precipitated in first precipitation,"pure mAb1 [8]; 40 μM pure mAb1, IFs with 250 μM O16, no salt",More than 82%
same,elution yield,"pure mAb1 [8]; 40 μM pure mAb1, elution buffer 40 mM sodium acetate pH 3.7",~88%
same,final precipitation yield after two sequential precipitations,"pure mAb1 [8]; 40 μM pure mAb1, second step IFs with 200 μM O16, no salt",greater than 97%
same,mAb1 precipitated in first precipitation,"pure mAb1 [8]; 80 μM pure mAb1, IFs with 750 μM O16, no salt",More than 82%
same,elution yield,"pure mAb1 [8]; 80 μM pure mAb1, elution buffer 40 mM sodium acetate pH 3.7",~88%
same,final precipitation yield after two sequential precipitations,"pure mAb1 [8]; 80 μM pure mAb1, second step IFs with 200 μM O16, no salt",greater than 97%
same,mAb precipitation yield,"pure mAb1 [3]; 40 μM mAb1, 2.5 mM filler, 250 μM O16, binding time 30 minutes",83%
same,mAb precipitation yield at optimal O16 concentration,"pure mAb1 [3]; 40 μM mAb1, no salt",around 85%
same,mAb precipitation yield,"pure mAb1 [3]; 40 μM mAb1, optimal IFs (2.5 mM filler, 250 μM O16), 1 M salt",More than 99%
same,mAb precipitation yield,"pure mAb1 [3]; 40 μM mAb1, optimal IFs (2.5 mM filler, 250 μM O16), no salt",88%
same,mAb precipitation yield at optimal O16 concentration,"pure mAb1 [3]; 80 μM mAb1, no salt",around 85%
same,mAb precipitation yield at optimal O16 concentration,"pure mAb1 [3]; 133 μM mAb1, no salt",about 65%
same,O16 concentration giving the best mAb precipitation yield,pure mAb1 [3]; 100 μL mAb1 at 10 μM and 20 μM with 100 μL IFs,200 µM
"P2000: ligand molecule C12-VVKK[Linker]Z33, linker PEG2000",diameter of self-assembled filamentous structures (TEM),[1],19.3±2.0 nm
same,CMC,[2],8.1 µM

# Source: patent publication US20240327455A1, “HIGH-AFFINITY SUPRAMOLECULAR POLYMERS FOR BINDING-TRIGGERED ANTIBODY PRECIPITATION AND PURIFICATION” (The Johns Hopkins University, priority 2021, published 2024)
